From patent WO2001085789A2 (dated 2001)

Columns and labels:
Ryk-Fc fusion protein [1] = target: T1, Ryk-Fc fusion protein (human); assay: SPR, BIACORE 2000, 25 C; scFv 1B4 amine coupled to CM5 chip, Ryk-Fc 30 to 242 nM injected; KD = koff/kon
T1 chain: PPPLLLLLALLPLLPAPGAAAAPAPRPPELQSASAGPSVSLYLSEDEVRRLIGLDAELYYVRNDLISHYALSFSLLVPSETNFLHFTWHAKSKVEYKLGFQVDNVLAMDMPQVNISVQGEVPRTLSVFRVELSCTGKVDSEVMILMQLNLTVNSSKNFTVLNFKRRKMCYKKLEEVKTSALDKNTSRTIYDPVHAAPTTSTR

Ryk-Fc fusion protein [2] = target: T1, Ryk-Fc fusion protein; assay: SPR, BIACORE 2000, 25 C; scFv 1B4 amine coupled to CM5 chip, Ryk-Fc 30 to 242 nM injected; global fit A + B = AB

- Kd (Ryk-Fc fusion protein [1]): 13.3 nM
- koff (Ryk-Fc fusion protein [2]): 0.00067 s⁻¹
- kon (Ryk-Fc fusion protein [2]): 50000 M⁻¹ s⁻¹
B1: anti-Ryk scFv 1B4 antibody (scFv, V domains shown)
VH: EVQLVQSGAEVKKPGSSVKVSCKASGGTFSSYAISWVRQAPGQGLEWMGGIIPIFGTANYAQKFQGRVTITADESTSTAYMELSSLRSEDTAVYYCARSYYDWFDYWGQGTLVTVSS
VL: IVLTQPPSVSGAPGQRVTISCSGSSSNIGSNYVSWYQQLPGTAPKLLIYDNNQRPSGVPDRFSGSKSGTSASLAITGLQSEDEADYYCQSWDSIAQIVFGGGTKLTVL
